Test results as given in article PMC7806715, “Discovery of small molecules targeting the tandem tudor domain of the epigenetic factor UHRF1 using fragment-based ligand discovery” (Scientific Reports, 2021).

Target: T1, FLAG-C-UHRF1 (containing SRA, RING E3 domains and PBR, aa 414–793) (UniProt Q96T88 414-793)
T1 construct: UHRF1 C-terminal fragment with the SRA domain, PBR and RING domain, aa 414–793; Cloned into the vector pMCSG7; The methods mix the names His6-C-FLAG-UHRF1, FLAG-C-UHRF1 and C-FLAG-UHRF1; also called FLAG tagged-C-UHRF1; source: Rosetta (DE3) E. coli, purified (Nuvia IMAC, TEV protease digestion to remove the His-tag, second IMAC pass)
T1 sequence (looked up): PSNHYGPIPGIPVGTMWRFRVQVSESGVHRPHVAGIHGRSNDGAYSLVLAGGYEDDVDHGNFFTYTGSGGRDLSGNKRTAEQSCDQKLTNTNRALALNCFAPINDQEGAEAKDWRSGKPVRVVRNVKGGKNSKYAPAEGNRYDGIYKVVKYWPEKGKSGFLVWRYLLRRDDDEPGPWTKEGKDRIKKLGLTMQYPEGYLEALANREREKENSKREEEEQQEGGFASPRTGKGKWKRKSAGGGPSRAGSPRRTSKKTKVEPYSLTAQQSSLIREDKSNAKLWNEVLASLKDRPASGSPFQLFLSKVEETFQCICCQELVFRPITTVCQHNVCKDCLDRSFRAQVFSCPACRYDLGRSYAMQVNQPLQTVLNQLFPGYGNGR
Experiment: AlphaScreen or HTRF; AlphaScreen: 300 nM biotinylated-His-Avitag-N-UHRF1 on streptavidin donor beads, 300 nM FLAG-C-UHRF1 on anti-FLAG acceptor beads; 50 mM HEPES pH 6.5 (screen) or 50 mM sodium phosphate pH 7 (dose response), 150 mM NaCl, 0.1% Triton X-100, 1 mM DTT; room temperature; inhibition by fragments or histone peptides
Conditions: both partners purified

binding result: binds
B1: biotinylated-His-AviTag-N-UHRF1 (containing UBL and TTD, aa 1–285) (domain or fragment, UniProt Q96T88 1-285, looked up)
chain: MWIQVRTMDGRQTHTVDSLSRLTKVEELRRKIQELFHVEPGLQRLFYRGKQMEDGHTLFDYEVRLNDTIQLLVRQSLVLPHSTKERDSELSDTDSGCCLGQSESDKSSTHGEAAAETDSRPADEDMWDETELGLYKVNEYVDARDTNMGAWFEAQVVRVTRKAPSRDEPCSSTSRPALEEDVIYHVKYDDYPENGVVQMNSRDVRARARTIIKWQDLEVGQVVMLNYNPDNPKERGFWYDAEISRKRETRTARELYANVVLGDDSLNDCRIIFVDEVFKIERPGE
modifications: biotin on the AviTag
notes: Cloned into the vector pMCSG51; also called biotinylated-AviTag-N-UHRF1
